Experimental data taken from patent US20210388087A1 (Chugai, published 2021).
Positions count from the first letter of the chain named. Names and notes keep the numbering of the source. Blank lines part the entries; values can stand above or below the binder they belong to.

Biological target: T1, Human CD3eg linker (human)
T1 construct: Single chain: epsilon and gamma subunits of human CD3 joined by a 29-mer linker, Flag-tag at the C-terminus; also called recombinant human CD3
T1 chain: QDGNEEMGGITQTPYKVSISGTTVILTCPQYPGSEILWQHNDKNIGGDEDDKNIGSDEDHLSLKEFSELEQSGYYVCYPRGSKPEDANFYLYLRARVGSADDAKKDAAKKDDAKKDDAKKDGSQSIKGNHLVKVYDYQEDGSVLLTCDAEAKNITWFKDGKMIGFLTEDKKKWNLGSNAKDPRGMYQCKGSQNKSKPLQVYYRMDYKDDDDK
Test: Biacore SPR, vs template H183/L072

fold change of affinity: 1.2 fold
B3: H183/L072 VH T28S (antibody, name in Kabat numbering, V domains shown)
VH: QVQLVESGGGLVQPGRSLRLSCAASGFSFSNAWMHWVRQAPGKGLEWVAQIKDKGNAYAAYYAPSVKGRFTISRDDSKNSIYLQMNSLKTEDTAVYYCHYVHYASASTVLPAFGVDAWGQGTTVTVSS
VL: DIVMTQSPLSLPVTPGEPASISCQASQELVHMNRNTYLHWYQQKPGQAPRLLIYKVSNRFPGVPDRFSGSGSGTDFTLKISRVEAEDVGVYYCAQGTSVPFTFGQGTKLEIK

fold change of affinity: 0.9 fold
B4: H183/L072 VH T28W (antibody, name in Kabat numbering, V domains shown)
VH: B3 VH with S28W
VL: B3 VL

fold change of affinity: 2.9 fold
B5: H183/L072 VH T28R (antibody, name in Kabat numbering, V domains shown)
VH: B3 VH with S28R
VL: B3 VL

fold change of affinity: 1.6 fold
B6: H183/L072 VH V63L (antibody, name in Kabat numbering, V domains shown)
VH: B3 VH with S28T, V66L
VL: B3 VL

fold change of affinity: 1.1 fold
B9: H183/L072 VH V63A (antibody, name in Kabat numbering, V domains shown)
VH: B3 VH with S28T, V66A
VL: B3 VL

fold change of affinity: 1 fold
B11: H183/L072 VH T100bM (antibody, name in Kabat numbering, V domains shown)
VH: B3 VH with S28T, T108M
VL: B3 VL

fold change of affinity: 0 fold
B19: H183/L072 VH T28Q (antibody, name in Kabat numbering, V domains shown)
VH: B3 VH with S28Q
VL: B3 VL

fold change of affinity: 1.4 fold
B21: H183/L072 VH V63I (antibody, name in Kabat numbering, V domains shown)
VH: B3 VH with S28T, V66I
VL: B3 VL

fold change of affinity: 1.1 fold
B22: H183/L072 VH T100bL (antibody, name in Kabat numbering, V domains shown)
VH: B3 VH with S28T, T108L
VL: B3 VL

fold change of affinity: 1.2 fold
B25: H183/L072 VH V63P (antibody, name in Kabat numbering, V domains shown)
VH: B3 VH with S28T, V66P
VL: B3 VL

fold change of affinity: 1.4 fold
B27: H183/L072 VH V63M (antibody, name in Kabat numbering, V domains shown)
VH: B3 VH with S28T, V66M
VL: B3 VL

fold change of affinity: 1.1 fold
B28: H183/L072 VH T100bA (antibody, name in Kabat numbering, V domains shown)
VH: B3 VH with S28T, T108A
VL: B3 VL

fold change of affinity: 1.1 fold
B30: H183/L072 VH T100bP (antibody, name in Kabat numbering, V domains shown)
VH: B3 VH with S28T, T108P
VL: B3 VL

fold change of affinity: 1 fold
B31: H183/L072 VH T28V (antibody, name in Kabat numbering, V domains shown)
VH: B3 VH with S28V
VL: B3 VL

fold change of affinity: 1.4 fold
B32: H183/L072 VH T100bI (antibody, name in Kabat numbering, V domains shown)
VH: B3 VH with S28T, T108I
VL: B3 VL

Further lines, the binder ahead of its results:

B1: H183/L072 VH S99P (antibody, name in Kabat numbering, V domains shown)
VH: B3 VH with S28T, S105P
VL: B3 VL
fold change of affinity: 0.6 fold

B2: H183/L072 VH T28P (antibody, name in Kabat numbering, V domains shown)
VH: B3 VH with S28P
VL: B3 VL
fold change of affinity: 0.7 fold

B7: H183/L072 VH S100aM (antibody, name in Kabat numbering, V domains shown)
VH: B3 VH with S28T, S107M
VL: B3 VL
fold change of affinity: 0.8 fold

B8: H183/L072 VH T28E (antibody, name in Kabat numbering, V domains shown)
VH: B3 VH with S28E
VL: B3 VL
fold change of affinity: 0.6 fold

B10: H183/L072 VH T28A (antibody, name in Kabat numbering, V domains shown)
VH: B3 VH with S28A
VL: B3 VL
fold change of affinity: 0 fold

B12: H183/L072 VH T28L (antibody, name in Kabat numbering, V domains shown)
VH: B3 VH with S28L
VL: B3 VL
fold change of affinity: 0.9 fold

B13: H183/L072 VH T28F (antibody, name in Kabat numbering, V domains shown)
VH: B3 VH with S28F
VL: B3 VL
fold change of affinity: 1 fold

B14: H183/L072 VH T28N (antibody, name in Kabat numbering, V domains shown)
VH: B3 VH with S28N
VL: B3 VL
fold change of affinity: 0.8 fold

B15: H183/L072 VH T28K (antibody, name in Kabat numbering, V domains shown)
VH: B3 VH with S28K
VL: B3 VL
fold change of affinity: 2.7 fold

B16: H183/L072 VH T28I (antibody, name in Kabat numbering, V domains shown)
VH: B3 VH with S28I
VL: B3 VL
fold change of affinity: 1.1 fold

B17: H183/L072 VH S100aP (antibody, name in Kabat numbering, V domains shown)
VH: B3 VH with S28T, S107P
VL: B3 VL
fold change of affinity: 1.1 fold

B18: H183/L072 VH T28G (antibody, name in Kabat numbering, V domains shown)
VH: B3 VH with S28G
VL: B3 VL
fold change of affinity: 0.7 fold

B20: H183/L072 VH T28D (antibody, name in Kabat numbering, V domains shown)
VH: B3 VH with S28D
VL: B3 VL
fold change of affinity: 0.6 fold

B23: H183/L072 VH T28H (antibody, name in Kabat numbering, V domains shown)
VH: B3 VH with S28H
VL: B3 VL
fold change of affinity: 0.9 fold

B24: H183/L072 VH S100aI (antibody, name in Kabat numbering, V domains shown)
VH: B3 VH with S28T, S107I
VL: B3 VL
fold change of affinity: 1 fold

B26: H183/L072 VH S100aL (antibody, name in Kabat numbering, V domains shown)
VH: B3 VH with S28T, S107L
VL: B3 VL
fold change of affinity: 1.1 fold

B29: H183/L072 VH S100aA (antibody, name in Kabat numbering, V domains shown)
VH: B3 VH with S28T, S107A
VL: B3 VL
fold change of affinity: 0.8 fold

B33: H183/L072 VH T28M (antibody, name in Kabat numbering, V domains shown)
VH: B3 VH with S28M
VL: B3 VL
fold change of affinity: 0.8 fold
